Test results reported in patent publication US7740850B2, “PDGFRβ-specific antibodies” (ImClone, LLC, priority 2007, dated 2010).

Key:
4β1α = experiment: Epitope mapping, PDGFRβ/α chimera; type: binding; settings: ✓ / X, key not given
Procedure: (§1) 2C5 binds to domain 1 (D1) and domain 2 (D2) of PDGFRβ. Various chimeric constructs of PDGFRβ and PDGFRα were first made by domain swapping, starting from N-terminus to C-terminus with PDGFRβ domain(s) replacing PDGFRα domain(s). The PDGFRβ/α chimera were tested for the ability of 2C5 binding. Shorter versions of PDGFRβ, including D1D2, D2D3 and D1D2D3, were then made to confirm the 2C5 binding domains on PDGFRβ.

3β2α = experiment: Epitope mapping, PDGFRβ/α chimera; type: binding; settings: ✓ / X, key not given
Procedure: as §1

WS-1 cells = experiment: PDGF-BB-stimulated cell migration, two-chamber technique; type: cell-based; settings: antibody 30 μg/ml, PDGF-BB 100 ng/ml, 4 hours
Procedure: (§2) 2C5 inhibits PDGF-BB-stimulated cell migration in a cell-based migration assay. Two-chamber technique was used to determine the inhibitory ability of 2C5 in cell migration with NCI-H460, OVCAR8, WS-1 and U-118 cell lines. Collagen (100 μg/ml) was added to the up chamber (100 μl) and the lower chamber (150 μl) and incubated at 37° C. for 1 hour. After washing the chambers twice with PBS, 100 μl of starved cells (estimated 0.5-10×10^6/ml in serum-free medium) were added to the up chamber and 150 μl of serum-free medium was added to the lower chamber and then incubated at 37° C. for 4 hours. […] In 2C5 wells, 2C5 were added into the up chamber at a final concentration of 30 μg/ml. Non-migrated cells in the up chamber were scraped from the membrane. After washing three times with PBS, migrated cells on the membrane of the lower chamber side were fixed with 4% formalin and stained with Hoechst (4 μg/ml). The results were captured and cells were counted under fluorescence microscopy.

U-118 cells = experiment: as above; type: cell-based; settings: antibody 30 μg/ml, PDGF-BB 100 ng/ml, 4 hours
Procedure: as §2

[1] = tested on: SK-OV-3 ovarian carcinoma xenograft; experiment: Subcutaneous tumor xenograft model; type: in vivo, mouse
Procedure: Six xenograft models, SK-OV-3, OV-CAR-8, BxPC-3, OV-CAR-5, Caki-1 and NCI-H460 (A to F, respectively) were used to examine the effects of 1B3 on xenograft tumors in athymic nude mice. Mice with established tumors (˜250-300 mm^3) were randomly grouped and treated with 1B3, normal human IgG, or saline by intraperitoneal injection twice weekly (except for BxPC-3 model where the mice were treated three times a week) at the dose indicated. Tumor volumes were measured twice a week and are presented as mean±SEM. *1 indicates the loss of one mouse due to severe illness. 1B3 binds to mouse, but not human, PDGFRβ. Accordingly, the observed responses to treatment result from inhibition of stimulation of host cells.
Antitumor activity of anti-mPDGFRβ antibody in tumor xenograft models. Six human xenograft tumor models, including three ovarian carcinoma (SK-OV-3, OV-CAR-5 and OV-CAR-8), one pancreatic carcinoma (BxPC3), one lung carcinoma (NCI-H460), and one kidney carcinoma (Caki-1), were used to assess the antitumor activity of 1B3 in vivo. […] Tumor sizes and mouse body weight were measured twice a week. Tumor volume was calculated using the formula: π/6×(length×width^2), where length=longest diameter and width=diameter perpendicular to length. The ratio of average tumor volume in the treatment group versus that in the control group (T/C %) was calculated. […]

human xenograft tumors = experiment: Human tumor xenograft models in athymic nude mice (statements over several models); type: in vivo; settings: all six xenograft models, i.p. up to 60 mg/kg
Procedure: Antitumor activity of anti-mPDGFRβ antibody in tumor xenograft models. Six human xenograft tumor models, including three ovarian carcinoma (SK-OV-3, OV-CAR-5 and OV-CAR-8), one pancreatic carcinoma (BxPC3), one lung carcinoma (NCI-H460), and one kidney carcinoma (Caki-1), were used to assess the antitumor activity of 1B3 in vivo. Athymic (nu/nu) mice (female, 7-8 weeks of age) were housed for 7-10 days before xenograft implantation. Each mouse was injected subcutaneously with 3-10×10^6 cells of SK-OV-3, OVCAR-5, OVCAR-8, Caki-1, BxPC3 or NCI-H460 tumor cells. When tumors reached approximately 250-300 mm^3, mice were randomized into groups of 10 to 12 animals each and treated by intraperitoneal injection, 2 to 3 times per week, with 1B3, DC101, or 1B3 in combination with DC101. Human IgG and/or USP saline were used as control groups. Tumor sizes and mouse body weight were measured twice a week. Tumor volume was calculated using the formula: π/6×(length×width^2), where length=longest diameter and width=diameter perpendicular to length. The ratio of average tumor volume in the treatment group versus that in the control group (T/C %) was calculated. Statistic analysis was performed by Student's t-test.
The xenograft cell lines were BxPC-3, MIA-PaCa-2, Detroit-562, HCT-8, NCI-H460, NCI-H292, and HCT-116. […] (FIG. 10 and Table 3). […]

Molecule	binding to 4β1α (4β1α)	binding to 3β2α (3β2α)	inhibition of PDGF-BB-stimulated cell migration (WS-1 cells)	inhibition of PDGF-BB-stimulated cell migration (U-118 cells)	tumor growth inhibition ([1]; 60 mg/kg i.p. twice weekly)	tumor growth inhibition ([1]; two lower doses (6, 20 mg/kg) i.p. twice weekly)	overt toxicity, including changes in body weight and animal behavior (human xenograft tumors)
2C5: PDGFRβ-specific human antibody binding both human and murine PDGFRβ; SEQ ID NOS in Table 1 (antibody, listed as Homo sapiens, V domains shown) VH: QVQLVQSGAEVKKPGSSVKVSCKASGGTFSSYAISWVRQAPGQGLEWMGRIIPILGIANYAQKFQGRVTITADKSTSTAYMELSSLRSEDTAVYYCARDMGSRNYYYFYWGQGTLVTVSS VL: EIVLTQSPATLSLSPGERATLSCRASQSVGRYLAWYQQKPGQAPRLLIYGASNRATGIPARFSGSGSGTDFTLTISSLEPEDFAVYYCQQRSNWPLTFGGGTKVEIK	✓	✓	inhibited PDGF-BB-stimulated cell migration completely	inhibited PDGF-BB-stimulated cell migration completely	–	–	–
1B3: human anti-mouse PDGFRβ antibody from Fab phage display library, human κ/γ1 constant regions; SEQ ID NOS in Table 1 (antibody, listed as Homo sapiens, V domains shown, human kappa/gamma1 constant regions) VH: QVQLQESGGGLVKPGGSLRLSCAASGFTFSSYSMNWVRQAPGKGLEWVSSISSSSSYIYYADSVKGRFTISRDNSKNTLYLQMNSLRAEDTAVYYCAKGGRPLLVFDFWGQGTLVTVS VL: EIVMTQSPGTLSLSPGERATLSCRASQSVSSSYLAWYQQKPGQAPRLLIYDASKRATGIPARFSGSGSGTDFTLTISTLESEDSAVYYCQQRGYWPPITFGQGTRLEIKR	–	–	–	–	completely blocked the tumor growth for up to 29 days	No tumor growth inhibition was observed	did not cause any overt toxicity
